The target of experiment [1] is TRIM21 (UniProt P19474). Kind of experiment: anti-Flag co-IP, TRIM21 blot. As to conditions: reference: wild type, EGF-treated; sites Y288.
For experiment [2], the target named is TRIM21 (UniProt P19474). Kind of experiment: co-IP, blot. The following applies: reference: wild type CD47, c-Src CA expressed; sites Y288.

Experimental findings from publication PMC10520678 are described below.

Regarding “CD47 (from UniProt Q08722) Y288F, EGF-treated”, the “binding against the reference” value with TRIM21 [1] is reported as “stronger”.

Turning to “CD47 (from UniProt Q08722) Y288F, c-Src CA expressed”, in the experiment with TRIM21 [2], the “binding against the reference” value is reported as “stronger”.
